Measurements taken from PMC3372766.

How the values were obtained:
[1] = molecular target: T66C P388C ClpX^ΔN (E. coli) (UniProt P0A6H1); assay: cross-linking
+315N ClpX^ΔN (E. coli) = +315N ClpX^ΔN (E. coli) (UniProt P0A6H1)
Δ315N ClpX^ΔN (E. coli) = Δ315N ClpX^ΔN (E. coli) (UniProt P0A6H1)
[2] = molecular target: T66C P388C E109C N331C ClpX^ΔN (E. coli) (UniProt P0A6H1); assay: cross-linking

A percent of the protein as disulfide-bonded circular hexamer after oxidation [1] of 75% and a stoichiometry N [1] of 6 were found for “T66C P388C ClpX^ΔN (from UniProt P0A6H1 61-423) (enzyme)” in this work.

A stoichiometry N (+315N ClpX^ΔN (E. coli)) of 6 was found for “+315N ClpX^ΔN (from UniProt P0A6H1 61-423) (enzyme)” in this work.

A stoichiometry N (Δ315N ClpX^ΔN (E. coli)) of 6 was found for “Δ315N ClpX^ΔN (from UniProt P0A6H1 61-423) (enzyme)” in this work.

“T66C P388C E109C N331C ClpX^ΔN (from UniProt P0A6H1 61-423) (enzyme)” was tested, and the percent of the protein as circular hexamer after oxidation [2] was > 90% and the stoichiometry N [2] was 6.
